This is an account of results in publication PMC3923860.

As a reminder, the Kd is the free concentration of one partner at which half of the binding sites on the other are occupied at equilibrium, for simple one-to-one binding. Read a high Kd as lower affinity.

Data set [1] concerns histone H1o (H1) (human). Description: EMSA. To be noted: no competitor DNA, EMSA: 50 mM NaCl, 25 mM Tris-HCl pH 7.5, 1 mM EDTA, 1 mM DTT, 100 ug/ml acetylated BSA, 3% glycerol, 30 min on ice.
Data set [2] has as its system oxidized HMGB1 (Cys23-Cys45 disulfide) (rat (sequence identical to human)). The experiment in a line: EMSA. To be noted: EMSA: 50 mM NaCl, 25 mM Tris-HCl pH 7.5, 1 mM EDTA, 1 mM DTT, 100 ug/ml acetylated BSA, 3% glycerol, 30 min on ice.
Data set [3] concerns reduced HMGB1 (all-thiol) (rat (sequence identical to human)). Description: EMSA. To be noted: EMSA: 50 mM NaCl, 25 mM Tris-HCl pH 7.5, 1 mM EDTA, 1 mM DTT, 100 ug/ml acetylated BSA, 3% glycerol, 30 min on ice. For orientation: A gel shift assay detects complexes by their altered migration in electrophoresis.
Data set [4] has as its system oxidized HMGB1 (Cys23-Cys45 disulfide) (rat (sequence identical to human)). The experiment in a line: ligase-mediated circularization. To be noted: bending, EMSA: 50 mM NaCl, 25 mM Tris-HCl pH 7.5, 1 mM EDTA, 1 mM DTT, 100 ug/ml acetylated BSA, 3% glycerol, 30 min on ice, gels 0.5x TBE, 4 C.
Where [5] appears, read: covalently closed circle, gels 0.5x TBE ….

Consider 66-bp DNA minicircle, for which the Kd in data set [1] (setting [5]) was 5 nM; in data set [2] (oxidized, covalently closed circle, gels 0.5x TBE …), 0.25 nM; in data set [3] (setting [5]), less than 0.1 nM.

Consider 123-bp DNA duplex, for which the binding signal (% of minicircles with reduced HMGB1) in data set [4] was less than 20.

Turning to hemicatenated DNA loops (hcDNA), the Kd in data set [1] (gels 0.5x TBE, 4 C) was 6 nM; in data set [2] (gels 0.5x TBE, 4 C) it was less than 0.01 nM; in data set [3] (gels 0.5x TBE, 4 C), less than 0.01 nM. In data set [2] (oxidized, gels 0.5x TBE, 4 C), the binding signal (fold lower affinity than reduced (up to)) stood at 10.
